Results published in patent publication US6716811B1, “Compounds having affinity for the granulocyte-colony stimulating factor receptor (G-CSFR) and associated uses” (Affymax, Inc., priority 2000, dated 2004).
Where a SMILES comes first, the peptide text is derived from it. Where no end group is shown, it is not given here. MBP = maltose binding protein

Experiments:
[1] = biological target: T1, G-CSFR (Homo sapiens, UniProt Q99062); test: Ba/F3 G-CSFR reporter cell (fos promoter/luciferase) assay; assay type: cell-based; parameters: expression vectors encoding the full length human G-CSFR; expressed in transfected cells; host or cells: murine IL-3 dependent Ba/F3 cells
T1 sequence (Q99062 25-836): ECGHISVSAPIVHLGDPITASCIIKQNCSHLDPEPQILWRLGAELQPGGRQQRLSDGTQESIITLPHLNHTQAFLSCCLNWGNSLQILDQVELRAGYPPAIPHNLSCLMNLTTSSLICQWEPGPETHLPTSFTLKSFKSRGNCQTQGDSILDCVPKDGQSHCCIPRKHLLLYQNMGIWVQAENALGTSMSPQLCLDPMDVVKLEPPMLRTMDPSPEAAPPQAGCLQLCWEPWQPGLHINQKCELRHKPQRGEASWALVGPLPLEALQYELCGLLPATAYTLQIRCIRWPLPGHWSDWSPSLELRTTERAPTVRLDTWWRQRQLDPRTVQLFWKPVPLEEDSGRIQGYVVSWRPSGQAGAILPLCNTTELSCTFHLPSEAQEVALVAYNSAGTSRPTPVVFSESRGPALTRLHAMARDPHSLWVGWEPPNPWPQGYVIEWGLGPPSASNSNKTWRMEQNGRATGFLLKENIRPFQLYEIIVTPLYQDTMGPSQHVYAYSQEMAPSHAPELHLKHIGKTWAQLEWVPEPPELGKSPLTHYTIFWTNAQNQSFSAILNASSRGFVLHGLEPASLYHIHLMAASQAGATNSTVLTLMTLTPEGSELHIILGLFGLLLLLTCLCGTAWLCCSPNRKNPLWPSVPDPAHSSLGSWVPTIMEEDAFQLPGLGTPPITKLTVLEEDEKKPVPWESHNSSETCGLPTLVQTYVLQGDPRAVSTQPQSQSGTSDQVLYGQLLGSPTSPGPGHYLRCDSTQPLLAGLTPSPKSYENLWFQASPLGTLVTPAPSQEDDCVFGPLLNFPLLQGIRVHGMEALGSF
Procedure: (§1) The bioactivity of selected peptides of the invention was measured in cell-based assays. […] Murine IL-3 dependent Ba/F3 cells were co-transfected with expression vectors encoding the full length human G-CSFR and a luciferase reporter gene controlled by the fos promoter.
Reporter cell assays were performed on the above cell line using peptides of the invention. The cells were maintained in complete RPMI-164Q media containing 10% fetal calf serum, 2 mM L-glutamine, 1X antibiotic-antimycotic solution (Life Technologies), and 10% WEHI-3 conditioned media (source of murine IL-3). For reporter assays, cells were starved overnight in medium which lacks WEHI-3 to reduce luciferase expression to background levels. The cells were then washed twice in PBS, resuspended in media which lacks WEHI-3 conditioned media, and added to wells of a 96-well microtiter plate containing dilutions of peptide or G-CSF at 5×10^4 cells/well. Plates were incubated for 2 hours at 37° C. in a humidified 5% CO2 incubator and luciferase activity was measured by the addition of luciferin (LucLite—Packard Biosciences) to each well. The plates were read in a TopCount (Wallac) microtiter plate luminometer.
To measure the ability of selected peptides of the invention to block G-CSF mediated receptor activation, dilutions of peptide were combined with Ba/F3 G-CSFR reporter cells as described above. After a 30-minute incubation at 37° C., G-CSF was added to each well. The cells were incubated for 2 hours at 37° C. and the amount of luciferase produced was measured as described above.
Ligand mediated G-CSF receptor activation in these cells results in the expression of luciferase, providing a detectable biological signal.
A biosassay was used to measure the potency of AF15846 and other possible G-CSF receptor antagonists. This bioassay utilizes a Ba/F3 cell line containing the rhGCSF receptor and a c-fos promoter/luciferase gene construct (Ba/F3/rhGCSF-R/pFos-1cf). Competent binding of a ligand to the receptor results in expression of lucifierase as the biological readout.

[2] = system: NFS-60 cells; test: Cell-based assays using NFS-60 cells; parameters: species or system Murine
[3] = Stability in cell culture medium (NFS-60-conditioned medium); assay type: in vitro ADME; conditions: overnight incubation in NFS-60-conditioned medium
[4] = biological target: T2, human thrombopoietin receptor (Homo sapiens, UniProt P40238); test: Proliferation of Ba/F3 cells expressing the human thrombopoietin receptor; assay type: cell-based
T2 construct: expressed in transfected cells; host or cells: Ba/F3 cells
T2 sequence (P40238 26-635): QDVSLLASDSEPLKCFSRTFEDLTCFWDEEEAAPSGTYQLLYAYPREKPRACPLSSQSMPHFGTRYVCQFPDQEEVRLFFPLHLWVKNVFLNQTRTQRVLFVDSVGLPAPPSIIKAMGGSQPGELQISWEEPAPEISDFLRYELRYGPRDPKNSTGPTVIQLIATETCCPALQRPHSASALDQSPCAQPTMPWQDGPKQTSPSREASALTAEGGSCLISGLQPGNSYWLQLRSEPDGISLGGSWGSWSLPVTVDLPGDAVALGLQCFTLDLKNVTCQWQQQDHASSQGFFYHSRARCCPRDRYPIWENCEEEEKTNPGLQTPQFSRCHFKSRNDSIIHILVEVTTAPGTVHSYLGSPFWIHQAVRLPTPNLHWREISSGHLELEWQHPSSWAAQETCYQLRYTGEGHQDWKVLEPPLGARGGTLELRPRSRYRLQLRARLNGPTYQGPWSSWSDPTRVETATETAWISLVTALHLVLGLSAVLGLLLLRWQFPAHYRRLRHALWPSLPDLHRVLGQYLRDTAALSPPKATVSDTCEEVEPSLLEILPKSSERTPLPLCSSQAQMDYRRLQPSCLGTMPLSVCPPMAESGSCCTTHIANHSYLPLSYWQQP
Text: (§2) This is true for most of the MBP fusions tested. Presumably the fusion protein is dimerized through intermolecular disulfide bonds between cysteine residues present in the peptide sequence.

[5] = biological target: T1, G-CSFR; test: Ba/F3 G-CSFR cell proliferation assay; assay type: cell-based; parameters: expression vectors encoding the full length human G-CSFR; expressed in transfected cells; host or cells: murine IL-3 dependent Ba/F3 cells; conditions: MBP fusion protein
Procedure: as §1, §2

[6] = system: Parental Ba/F3 cells; test: Proliferation of parental Ba/F3 cells; assay type: cell-based, Murine
[7] = Incubation of oxidized peptide at 37° C., HPLC pattern; assay type: physicochemical; conditions: pH 6.0 or pH 7.5, clean profiles only at pH 4.1
Procedure: The oxidized peptide was also reacted with N-ethylmaleimide (NEM) at 37° C. for 1 hour in 100 mM ammonium acetate, pH 4.1 to see if any free Cys residues remained in the molecule. If this were the case, treatment with the alkylating reagent would result in a shift of the HPLC retention time. Upon incubation with NEM, no such shift was seen (FIG. 7). In contrast, when the oxidized peptide was incubated with the disulfide specific reducing agent TCEP, also in ammonium acetate, a shift to a later retention time, consistent with reduced peptide, was found. The reduced peptide was modified with NEM to produce a peptide that eluted even later than the reduced form.
It was necessary to drop to pH 4.1 to obtain clean profiles upon NEM treatment.

[8] = biological target: T3, G-CSF receptor (Homo sapiens, UniProt Q99062); test: 125I-G-CSF competition binding assay of oxidized AF15846 fractions; conditions: HPLC fractions of oxidized AF15846; FIG. 4
T3 sequence (Q99062 25-836): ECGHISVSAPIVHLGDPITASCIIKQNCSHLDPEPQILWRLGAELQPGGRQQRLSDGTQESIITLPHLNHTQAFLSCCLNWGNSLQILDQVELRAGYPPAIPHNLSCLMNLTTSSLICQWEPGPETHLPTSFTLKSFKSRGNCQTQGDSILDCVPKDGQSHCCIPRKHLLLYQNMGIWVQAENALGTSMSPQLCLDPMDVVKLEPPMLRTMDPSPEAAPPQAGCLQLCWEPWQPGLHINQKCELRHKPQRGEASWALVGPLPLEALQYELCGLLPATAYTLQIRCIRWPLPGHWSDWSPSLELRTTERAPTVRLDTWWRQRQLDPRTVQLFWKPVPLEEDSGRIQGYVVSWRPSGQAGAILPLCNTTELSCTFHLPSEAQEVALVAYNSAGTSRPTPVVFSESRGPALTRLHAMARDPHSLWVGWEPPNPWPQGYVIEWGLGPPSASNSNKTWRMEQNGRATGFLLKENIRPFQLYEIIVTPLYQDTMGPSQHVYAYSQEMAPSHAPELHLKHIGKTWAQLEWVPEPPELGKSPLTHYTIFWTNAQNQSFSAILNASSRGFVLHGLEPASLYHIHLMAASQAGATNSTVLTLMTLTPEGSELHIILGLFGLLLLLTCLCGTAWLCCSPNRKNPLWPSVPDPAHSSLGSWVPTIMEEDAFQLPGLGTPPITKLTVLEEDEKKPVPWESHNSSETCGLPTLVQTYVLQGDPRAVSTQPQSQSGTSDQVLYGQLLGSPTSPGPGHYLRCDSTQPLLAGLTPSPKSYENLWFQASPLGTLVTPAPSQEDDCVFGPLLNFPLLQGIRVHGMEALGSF
Text: (§3) Several fractions containing oxidized AF15846 resulting from treatment under the conditions described above were collected subjected to testing in two assays: an ^125I-G-CSF competition binding assay and an ELISA format competitive G-CSF receptor-binding assay.

[9] = biological target: T3, G-CSF receptor; test: ELISA format competitive G-CSF receptor-binding assay; conditions: HPLC fractions of oxidized AF15846
Text: as §3

[10] = biological target: T1, G-CSFR; parameters: made in house; conditions: read-out: observed affinity for its receptor; cited from earlier work

Molecule: CC[C@H](C)[C@H](NC(=O)[C@H](CC(=O)O)NC(=O)[C@H](CC(C)C)NC(=O)[C@@H](N)CC(C)C)C(=O)N[C@@H](CS)C(=O)N[C@@H](CCC(=O)O)C(=O)N[C@@H](CC(C)C)C(=O)N[C@@H](CCCCN)C(=O)N[C@@H](CC(C)C)C(=O)N[C@@H](CCC(N)=O)C(=O)N[C@@H](CCC(=O)O)C(=O)N[C@@H](CS)C(=O)N[C@@H](C)C(=O)N[C@@H](CCCNC(=N)N)C(=O)N[C@@H](CCCNC(=N)N)C(=O)N[C@@H](CS)C(=O)N[C@@H](CC(N)=O)C(=O)O [Example 53, LLDICELKLQECARRCN] (H-LLDICELKLQECARRCN-OH; N-terminus and C-terminus assumed)
- effect on G-CSF dose-response curve (luciferase) ([1]; Ba/F3/rhGCSF-R/pFos-lcf, FIGS. 10A, 10B, 11): dose-response curve shifting to higher concentrations
- effect on G-CSF response (luciferase) ([1]; increasing concentrations of peptide added before G-CSF, FIG. 3): G-CSFR antagonist

Molecule: EQSNSGWVWV-NH2 [Example 74]
- antagonist activity in cell-based assays [2]: antagonist activity at high concentrations
- stability in cell culture medium [3]: no loss of activity was observed

Molecule: MBP fusion protein of Example 78: Example 78 peptide fused to the carboxy-terminus of the maltose binding protein (MBP); monomeric and dimeric species ({MBP}-LLDICELKLQECARRCN; cysteine pairing not given here; also: monomeric and dimeric species)
- proliferation in response to fusion protein [4]: did not proliferate
- concentration of maximal activity in Ba/F3 G-CSFR cell proliferation assay [5]: 100 nM
- proliferation in response to fusion protein [6]: did not proliferate

Molecule: Tris-oxidized species: active oxidized dimer of AF15846 formed in 50 mM Tris, pH 8 (LLDICELKLQECARRCN; also: homodimer of two chains joined by three parallel interchain disulfides, disulfide at 5, other end not in the chain, disulfide at 12, other end not in the chain, disulfide at 16, other end not in the chain)
- stability on incubation at higher pH [7]: disulfide scrambling and/or degradation
- activity of fractions in 125I-G-CSF competition binding assay [8]: highest activity
- activity of fractions in ELISA format competitive G-CSF receptor-binding assay [9]: highest activity

B1: Granulocyte-colony stimulating factor (protein)
chain: TPLGPASSLPQSFLLKCLEQVRKIQGDGAALQEKLCATYKLCHPEELVLLGHSLGIPWAPLSSCPSQALQLAGCLSQLHSGLFLYQGLLQALEGISPELGPTLDTLQLDVADFATTIWQQMEELGMAPALQPTQGAMPAFASAFQRRAGGVLVASHLQSFLEVSYRVLRHLAQP
- luciferase response of reporter cells ([1]; ligand alone, FIG. 2): dose dependent manner
- Kd [10]: ~100 pM
